How the values were obtained:
[1] = target: Bacillus anthracis protective antigen (PA), 83 kDa polypeptide (Bacillus anthracis) (UniProt P13423)
[2] = target: Bacillus anthracis protective antigen (PA), 83 kDa polypeptide (Bacillus anthracis) (UniProt P13423); remark: listed apart in the source

Chain of Bacillus anthracis protective antigen (PA), 83 kDa polypeptide (Bacillus anthracis) (P13423 30-764 limits assumed): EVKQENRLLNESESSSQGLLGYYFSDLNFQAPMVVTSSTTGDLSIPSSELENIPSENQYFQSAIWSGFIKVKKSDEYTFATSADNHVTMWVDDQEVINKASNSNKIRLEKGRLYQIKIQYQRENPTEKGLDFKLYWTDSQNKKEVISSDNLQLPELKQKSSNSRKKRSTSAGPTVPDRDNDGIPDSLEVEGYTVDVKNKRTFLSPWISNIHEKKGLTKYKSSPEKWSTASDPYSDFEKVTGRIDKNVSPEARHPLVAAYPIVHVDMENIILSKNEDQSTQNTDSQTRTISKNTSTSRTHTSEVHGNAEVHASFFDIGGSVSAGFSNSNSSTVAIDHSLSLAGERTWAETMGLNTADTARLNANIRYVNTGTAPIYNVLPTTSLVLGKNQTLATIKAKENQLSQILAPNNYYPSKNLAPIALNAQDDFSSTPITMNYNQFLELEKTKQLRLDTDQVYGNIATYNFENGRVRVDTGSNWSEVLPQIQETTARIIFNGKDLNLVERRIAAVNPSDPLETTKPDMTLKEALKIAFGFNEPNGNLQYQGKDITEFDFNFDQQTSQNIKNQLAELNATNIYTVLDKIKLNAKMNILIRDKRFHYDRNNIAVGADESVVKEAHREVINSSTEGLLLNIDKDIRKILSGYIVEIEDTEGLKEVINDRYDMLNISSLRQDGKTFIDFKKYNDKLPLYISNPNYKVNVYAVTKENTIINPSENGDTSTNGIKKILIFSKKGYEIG

Substance: 14B7 scFv with the mutation L97Leu:Ala
- Kd [1]: 63 nM
- koff [1]: 0.019 s⁻¹
- kon [1]: 300000 M⁻¹ s⁻¹
- fold higher KD than 14B7 [2]: > 5 fold

— US7446182
